{
  "source": "patent US20080050375A1",
  "about": "(Eli Lilly, published 2008)",
  "target": "T1, TGF-beta 1 mutein (R25K, K26R, V33I, P87T, V89L, K95T) (Homo sapiens (Human), UniProt P01137 279-390, Mature TGF-beta 1 is a disulfide-linked homodimer; one monomer chain is given.)",
  "T1 chain": "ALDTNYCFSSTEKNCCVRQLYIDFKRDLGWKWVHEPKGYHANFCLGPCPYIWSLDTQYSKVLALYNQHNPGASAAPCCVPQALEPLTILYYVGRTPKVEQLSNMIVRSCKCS",
  "assay": "laser desorption/ionization time-of-flight MS on chips (Ciphergen)",
  "data": [
    {"binder": "mAb 1D11 (R&D Systems) (antibody, V domains shown) VH: QVQLQQSGPELVRPGASVKLSCKASGYIFITYWMNWVKQRPGQGLEWIGQIFPASGSTNYNEMFEGKATLTVDTSSSTAYMQLSSLTSEDSAVYYCARGDGNYALDAMDYWGQGTSVTVSS VL: DIVLTQSPASLAVSLGQRATISCRASESVDSYGNSFMHWYQQKSGQPPKLLIYLASNLESGVPARFSGSGSRTDFTLTIDPVEADDAATYYCQQNNEDPLTFGAGTKLEIK", "values": [
      {"measurement": "fold less binding of the TGF-beta 1 mutein relative to wild type TGF-beta 1", "result": 2.5, "unit": "fold"}
    ]}
  ]
}
